Patent US20220017623A1, “TREATMENT OF CANCER USING A CEA CD3 BISPECIFIC ANTIBODY AND A WNT SIGNALING INHIBITOR” (Hoffmann-La Roche Inc., priority 2019, published 2022)
Like-named read-outs stand apart in the source and are kept apart here.

Key:
[1] = system: patient derived colorectal cancer organoids (PDOs); assay: allogeneic CD8 T cell co-culture assay with patient derived colorectal cancer organoids, GFP confluence growth assessment; assay type: cell-based, human; details: 20 nM
Method: In order to assess the sensitivity of patient-derived colorectal cancer organoids (PDOs) to cibisatamab immunotherapy, eight patient derived colorectal cancer organoid lines with various cell surface CEA expression levels were generated and treated with cibisatamab (20 nM) or an untargeted control antibody (20 nM) during 10 days of co-culture with allogeneic CD8 T cells. CD8 T cells were isolated from allogeneic healthy donor peripheral blood mononuclear cells (PBMCs) by magnetic bead sorting and expanded in vitro with IL2 and CD3/CD28 beads for 7-14 days. GFP-tagged CRC PDO cells were then seeded in 96 well plates, T cells were added the following day and the co-cultures were imaged every 2-3 days on an automated 96 well plate fluorescence microscope. […] Co-culture with CD8 T cells without any antibody was included as a further control to enable the identification of alloreactive donor T cells.
Eight PDO lines were tested: three CEAhi PDOs (i.e. containing predominantly CEAhi cells; CRC-01, CRC-05, CRC-07), four PDOs with mixed CEA expression (i.e. containing large subpopulations of both CEAhi and CEAlo cells; CRC-02, CRC-03, CRC-04, CRC-08), and one CEAlo PDO (i.e. containing predominantly CEAlo cells; CRC-06).
PDOs were harvested with TrypLE Express and neutralised with DMEM/F12 Ham medium (Sigma Aldrich) with 10% FBS. Cells were filtered through a 70 μm filter, counted and resuspended in phenol-red free RPMI medium (Thermo Fisher) supplemented with 10% FBS (Biosera), 1× Glutamax and 100 units penicillin-streptomycin. On day 0, 5000 tumor cells per well of a 96 well-plate (Corning Special Optics Microplate) were plated. CD8 T cells were added on day 1 at the indicated effector to target (E:T) ratios with 20 nM of cibisatamab or 20 nM of the untargeted negative control antibody DP47-TCB (both provided by Roche). Tumor cells without CD8 T cells and without antibody were also included as controls. All conditions were plated in triplicates and at least 3 different healthy donors were tested on each of the 8 PDOs.
The GFP confluence was quantified every 48h-72h over a 10-day period using the GFP confluence application on the Celigo Imaging Cytometer (Nexcelom Bioscience). GFP confluence analysis was able to track the growth of GFP positive PDO cells over multiple timepoints without erroneously counting the T cells in the co-culture. […] The main advantage of confluence analysis over measuring spheroid diameters is the ability to track even the growth of PDOs showing highly variable shapes. Growth curves were generated with CD8 T cells from three different healthy blood donors. […]

[2] = system: CEA expressing metastatic CRCs; details: cited from earlier work

B1: cibisatamab (antibody, chains of the INN, looked up, V domains shown)
VH: QVQLVQSGAEVKKPGASVKVSCKASGYTFTEFGMNWVRQAPGQGLEWMGWINTKTGEATYVEEFKGRVTFTTDTSTSTAYMELRSLRSDDTAVYYCARWDFAYYVEAMDYWGQGTTVTVSS
VL: DIQMTQSPSSLSASVGDRVTITCKASAAVGTYVAWYQQKPGKAPKLLIYSASYRKRGVPSRFSGSGSGTDFTLTISSLQPEDFATYYCHQYYTYPLFTFGQGTKLEIK
VH2: B1 VH
VL2: QAVVTQEPSLTVSPGGTVTLTCGSSTGAVTTSNYANWVQEKPGQAFRGLIGGTNKRAPGTPARFSGSLLGGKAALTLSGAQPEDEAEYYCALWYSNLWVFGGGTKLTVL
For B1, the growth inhibition ([1]; CEAhi PDOs (CRC-01, CRC-05, CRC-07), CD8 T cells E:T 2:1, 7-10 days, versus DP47-TCB control) was 89-100%, the “reduction of the cancer cell growth rate compared to controls” value ([1]; four PDOs with mixed CEA expression (CRC-02, CRC-03, CRC-04, CRC-08), E:T 2:1) was “only a moderate reduction of the cancer cell growth rate” and the “sensitivity to treatment with CD8 T cells and antibody” value ([1]; predominantly CEAlo PDO CRC-06, E:T 2:1) was “showed resistance”. The “sensitivity to treatment with CD8 T cells and antibody” value ([1]; three CEAhi PDOs, E:T 2:1) was “highly sensitive”, the “patients with radiological shrinkage (antitumor activity)” value ([2]; in combination with PD-L1-inhibiting antibodies, 5/10 patients) was 50% and the “patients with radiological shrinkage (antitumor activity)” value ([2]; monotherapy, metastatic CRC after at least two prior chemotherapy regimens, 4/36 patients) was 11%.
